These results are taken from patent US20090202513A1, “RIBONUCLEASE AND THIAZOLIDINEDIONE COMPOUNDS AND THEIR USE IN METHODS TO TREAT CANCER” (The University of Vermont and State Agriculture College, priority 2008, published 2009).

“Also recorded” adds a separate entry of the source.

In data set [1] the test system is NCI-H292 lung cancer cell line. The experiment in a line: MTS viability of cells transfected with siFra-1 or scramble control (siC). As to conditions: 48 h. It is filed as cell-based, human. On the procedure:
Assays were performed on 96-well microtiter plates after plating of 7.7×10^4 cells/well. […] Cell viability was measured by the colorimetric methoxy-tetrazolium salt (MTS) Assay, CellTiter 96 Aqueous One Solution Cell Proliferation Assay (Promega), per the manufacturer's recommendations. MTS is a tetrazolium salt that undergoes a color change caused by its bioreduction of MTS into a water-soluble formazan. The conversion of MTS into the aqueous-soluble formazan is accomplished by dehydrogenase enzymes found in active mitochondria, with reaction occurring only in living cells. The quantity of formazan product measured by the amount of 490-nm light absorbance is directly proportional to the number of living cells in culture. Briefly, 20 μl of MTS reagent was added per well, and plates incubated at 37° C. for 2-3 h. Finally, the absorbance of each well was read at 490 nm and 650 nm. ΔOD from these two wavelengths were reported as the corrected viability. Fold changes were calculated with respect to the control as a measure of cell viability.
siFra-1 RNA interference (RNAi) duplexes were constructed from sequence information on mature mRNA extracted from the EST database available through the National Center for Biotechnology Information internet site using the open frame region from the cDNA sequence of exon 2 of the Fra-1 gene. The siRNA pool sequences targeting Fra-1 corresponded to the 107-126, 124-143, 230-249 coding regions relative to the first nucleotide of the start codon. The sequences were BLAST-searched (NCBI database) against EST libraries to ensure the specificity of the siRNA molecule. The siRNA duplexes or a scramble control were transfected into cancer lines using Lipofectamine 2000 (Invitrogen) as recommended by the manufacturer. Cells were incubated with complexes overnight, and the medium was replaced the next day. Cells were allowed to recover for 48 hours before treatments.
Cells were transfected with siFra-1 or scramble control (siC) and left to rest for 48 h before treatment. […] The PPARγ inhibitor GW9662 (2 μM) was added to observe the influence of PPARγ.

The conditions of data set [2]: i.v. 2.5 mg/kg, twice a week for 2 weeks; previous studies, personal communication; cited from earlier work.

Take `O=C(Nc1ccccc1)c1cc([N+](=O)[O-])ccc1Cl` [GW9662, reference compound]: in data set [1] (GW9662 2 μM added to the combination), the “influence of PPARγ antagonist on the synergistic effect of ranpirnase and rosiglitazone” value is “did not significantly modify the synergistic effect of ranpirnase and rosiglitazone”.

B1: ranpirnase (protein, UniProt P22069 1-104, looked up)
Protein P-30: QDWLTFQKKHITNTRDVDCDNIMSTNLFHCKDKNTFIYSRPEPVKAICKGIIASKNVLTTSEFYLSDCNVTSRPCKYKLKKSTNKFCVTCENQAPVHFVGVGSC
notes: RNase extracted from Rana pipiens, the Northern leopard frog; registered trademark name ONCONASE™
For the molecule B1, in data set [1] (ranpirnase 0.1, 1 or 10 μg/mL, rosiglitazone 10 or 20 μM), the “effect of Fra-1 knock-down (siFra-1 vs siC) on efficacy / cell killing of the single drug” value is “significantly increased the efficacy of ranpirnase alone at all concentrations; also recorded: increases cell killing by ranpirnase (0.1, 1, or 10 μg/mL) in a concentration-dependent manner”. In addition, the “cell viability (MTS)” value in data set [1] (ranpirnase 0.1, 1 or 10 μg/mL) is “reduced viability in a dose-dependent manner”. In data set [2], the “apoptosis induction in vivo” value is reported as “effective in producing apoptosis” and the “toxicity to the animals” value was “non-toxic to the animals”.
